# Key:
# Kir2.1 = target: T1, Kir2.1 (Homo sapiens, UniProt P63252); assay: Ion channel panel (IonWorks Barracuda): Kir2.1; type: cell-based; details: 100% = no change, <100% = inhibition
# T1 construct: host or cells: HEK293 or CHO
# Procedure, shortened: (§1)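 Peptides were tested in duplicate at final 20 μM and 200 nM, with concentration set by amino acid analysis, in HEPES-buffered saline. They were applied for at least 5 min to HEK293 or CHO cells transfected with each channel. Currents were expressed as % inhibition, 1-(Ipeptide/Icontrol)×100, or % activation, Ipeptide/Icontrol×100, against a channel-matched reference compound.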
# TRPV1 = target: T2, TRPV1 (Homo sapiens, UniProt Q8NER1); assay: Ion channel panel (IonWorks Barracuda): TRPV1; type: cell-based; details: 100% = no change, <100% = inhibition
# T2 construct: host or cells: HEK293 or CHO
# Procedure, shortened: as §1
# 5HT3a = target: T3, 5HT3a (Homo sapiens, UniProt P46098); assay: Ion channel panel (IonWorks Barracuda): 5HT3a; type: cell-based
# T3 construct: host or cells: HEK293 or CHO
# T3 sequence (P46098 whole entry, looked up): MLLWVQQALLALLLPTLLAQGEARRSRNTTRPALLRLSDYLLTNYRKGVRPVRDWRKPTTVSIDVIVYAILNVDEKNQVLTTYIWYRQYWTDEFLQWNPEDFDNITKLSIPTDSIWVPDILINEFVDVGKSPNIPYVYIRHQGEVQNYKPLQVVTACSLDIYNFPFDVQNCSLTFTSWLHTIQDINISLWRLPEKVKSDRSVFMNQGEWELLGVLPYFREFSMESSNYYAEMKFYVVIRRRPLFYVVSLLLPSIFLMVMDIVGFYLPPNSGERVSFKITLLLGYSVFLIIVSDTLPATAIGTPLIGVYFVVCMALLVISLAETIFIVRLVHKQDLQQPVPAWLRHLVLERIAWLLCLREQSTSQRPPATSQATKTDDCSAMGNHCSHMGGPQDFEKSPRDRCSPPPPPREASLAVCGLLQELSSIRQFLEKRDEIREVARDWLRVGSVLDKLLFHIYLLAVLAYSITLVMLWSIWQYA
# Procedure, shortened: as §1
# TRPA1 = target: T4, TRPA1 (Homo sapiens, UniProt O75762); assay: Ion channel panel (IonWorks Barracuda): TRPA1; type: cell-based; details: 100% = no change, <100% = inhibition
# T4 construct: host or cells: HEK293 or CHO
# T4 sequence (O75762 whole entry): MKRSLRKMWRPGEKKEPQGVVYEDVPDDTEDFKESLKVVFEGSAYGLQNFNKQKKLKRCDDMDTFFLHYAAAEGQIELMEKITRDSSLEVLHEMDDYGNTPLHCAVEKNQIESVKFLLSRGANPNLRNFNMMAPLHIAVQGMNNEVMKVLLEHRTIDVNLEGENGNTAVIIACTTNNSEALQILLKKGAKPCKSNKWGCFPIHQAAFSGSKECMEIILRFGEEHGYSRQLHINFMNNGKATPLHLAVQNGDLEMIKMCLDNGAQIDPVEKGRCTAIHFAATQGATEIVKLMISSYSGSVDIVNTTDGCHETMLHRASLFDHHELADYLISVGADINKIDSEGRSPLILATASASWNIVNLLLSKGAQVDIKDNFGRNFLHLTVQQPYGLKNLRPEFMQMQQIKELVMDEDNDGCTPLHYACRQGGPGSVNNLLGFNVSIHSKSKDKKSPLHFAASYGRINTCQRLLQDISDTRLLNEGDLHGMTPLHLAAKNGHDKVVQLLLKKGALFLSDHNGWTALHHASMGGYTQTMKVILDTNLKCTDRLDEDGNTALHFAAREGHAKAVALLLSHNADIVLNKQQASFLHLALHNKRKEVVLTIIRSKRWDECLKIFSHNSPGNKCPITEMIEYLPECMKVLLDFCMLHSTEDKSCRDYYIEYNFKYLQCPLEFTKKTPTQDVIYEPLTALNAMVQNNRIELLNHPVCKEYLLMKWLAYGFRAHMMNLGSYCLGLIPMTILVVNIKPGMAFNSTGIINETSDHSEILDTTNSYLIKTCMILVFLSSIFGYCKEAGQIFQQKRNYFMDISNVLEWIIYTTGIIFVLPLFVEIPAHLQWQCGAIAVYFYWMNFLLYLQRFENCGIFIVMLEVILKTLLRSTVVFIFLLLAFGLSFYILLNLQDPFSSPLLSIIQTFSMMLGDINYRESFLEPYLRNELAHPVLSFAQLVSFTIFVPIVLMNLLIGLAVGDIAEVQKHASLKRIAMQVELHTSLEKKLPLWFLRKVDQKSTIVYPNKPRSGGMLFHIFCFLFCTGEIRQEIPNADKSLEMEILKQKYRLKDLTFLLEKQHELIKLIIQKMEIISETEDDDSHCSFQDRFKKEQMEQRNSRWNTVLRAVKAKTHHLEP
# Procedure, shortened: as §1
# Cav2.2 = target: T5, Cav2.2 (Homo sapiens, UniProt Q00975); assay: cell-based; details: 100% = no change, <100% = inhibition
# T5 construct: host or cells: HEK293 or CHO
# Procedure, shortened: as §1
# Kv2.1 = target: T6, Kv2.1 (Homo sapiens, UniProt Q14721); assay: cell-based; details: 100% = no change, <100% = inhibition
# T6 construct: host or cells: HEK293 or CHO
# Procedure, shortened: as §1
# Cav2.1 = target: T7, Cav2.1 (Homo sapiens, UniProt O00555); assay: cell-based; details: 100% = no change, <100% = inhibition
# T7 construct: host or cells: HEK293 or CHO
# Procedure, shortened: as §1
# Kv1.2 = target: T8, Kv1.2 (Homo sapiens, UniProt P16389); assay: cell-based; type: cell-based; details: 100% = no change, <100% = inhibition
# T8 construct: host or cells: HEK293 or CHO
# Procedure, shortened: as §1
# Kv1.3 = target: T9, Kv1.3 (Homo sapiens, UniProt P22001); assay: cell-based; type: cell-based; details: 100% = no change, <100% = inhibition
# T9 construct: host or cells: HEK293 or CHO
# Procedure, shortened: as §1
# Kv1.1 = target: T10, Kv1.1 (Homo sapiens, UniProt Q09470); assay: cell-based; type: cell-based; details: 100% = no change, <100% = inhibition
# T10 construct: host or cells: HEK293 or CHO
# Procedure, shortened: as §1
# NR2A = target: T11, NR2A (Homo sapiens, UniProt Q12879); assay: Ion channel panel (IonWorks Barracuda): NR2A; type: cell-based; details: 100% = no change, <100% = inhibition
# T11 construct: host or cells: HEK293 or CHO
# Procedure, shortened: as §1
# hERG = hERG (Homo sapiens, UniProt Q12809); assay: in vitro; details: 100% = no change, <100% = inhibition
# Procedure, shortened: as §1
# Nav1.5 = Nav1.5 (Homo sapiens, UniProt Q14524); assay: in vitro; details: 100% = no change; for Activity of Nav1.5 with peptide, expressed as a percentage of the reference compound: peptide at 0.2 μM; for Activity of Nav1.5 with peptide (percentage of the reference compound): peptide at 20 μM
# Chain of Nav1.5 (Q14524 whole entry): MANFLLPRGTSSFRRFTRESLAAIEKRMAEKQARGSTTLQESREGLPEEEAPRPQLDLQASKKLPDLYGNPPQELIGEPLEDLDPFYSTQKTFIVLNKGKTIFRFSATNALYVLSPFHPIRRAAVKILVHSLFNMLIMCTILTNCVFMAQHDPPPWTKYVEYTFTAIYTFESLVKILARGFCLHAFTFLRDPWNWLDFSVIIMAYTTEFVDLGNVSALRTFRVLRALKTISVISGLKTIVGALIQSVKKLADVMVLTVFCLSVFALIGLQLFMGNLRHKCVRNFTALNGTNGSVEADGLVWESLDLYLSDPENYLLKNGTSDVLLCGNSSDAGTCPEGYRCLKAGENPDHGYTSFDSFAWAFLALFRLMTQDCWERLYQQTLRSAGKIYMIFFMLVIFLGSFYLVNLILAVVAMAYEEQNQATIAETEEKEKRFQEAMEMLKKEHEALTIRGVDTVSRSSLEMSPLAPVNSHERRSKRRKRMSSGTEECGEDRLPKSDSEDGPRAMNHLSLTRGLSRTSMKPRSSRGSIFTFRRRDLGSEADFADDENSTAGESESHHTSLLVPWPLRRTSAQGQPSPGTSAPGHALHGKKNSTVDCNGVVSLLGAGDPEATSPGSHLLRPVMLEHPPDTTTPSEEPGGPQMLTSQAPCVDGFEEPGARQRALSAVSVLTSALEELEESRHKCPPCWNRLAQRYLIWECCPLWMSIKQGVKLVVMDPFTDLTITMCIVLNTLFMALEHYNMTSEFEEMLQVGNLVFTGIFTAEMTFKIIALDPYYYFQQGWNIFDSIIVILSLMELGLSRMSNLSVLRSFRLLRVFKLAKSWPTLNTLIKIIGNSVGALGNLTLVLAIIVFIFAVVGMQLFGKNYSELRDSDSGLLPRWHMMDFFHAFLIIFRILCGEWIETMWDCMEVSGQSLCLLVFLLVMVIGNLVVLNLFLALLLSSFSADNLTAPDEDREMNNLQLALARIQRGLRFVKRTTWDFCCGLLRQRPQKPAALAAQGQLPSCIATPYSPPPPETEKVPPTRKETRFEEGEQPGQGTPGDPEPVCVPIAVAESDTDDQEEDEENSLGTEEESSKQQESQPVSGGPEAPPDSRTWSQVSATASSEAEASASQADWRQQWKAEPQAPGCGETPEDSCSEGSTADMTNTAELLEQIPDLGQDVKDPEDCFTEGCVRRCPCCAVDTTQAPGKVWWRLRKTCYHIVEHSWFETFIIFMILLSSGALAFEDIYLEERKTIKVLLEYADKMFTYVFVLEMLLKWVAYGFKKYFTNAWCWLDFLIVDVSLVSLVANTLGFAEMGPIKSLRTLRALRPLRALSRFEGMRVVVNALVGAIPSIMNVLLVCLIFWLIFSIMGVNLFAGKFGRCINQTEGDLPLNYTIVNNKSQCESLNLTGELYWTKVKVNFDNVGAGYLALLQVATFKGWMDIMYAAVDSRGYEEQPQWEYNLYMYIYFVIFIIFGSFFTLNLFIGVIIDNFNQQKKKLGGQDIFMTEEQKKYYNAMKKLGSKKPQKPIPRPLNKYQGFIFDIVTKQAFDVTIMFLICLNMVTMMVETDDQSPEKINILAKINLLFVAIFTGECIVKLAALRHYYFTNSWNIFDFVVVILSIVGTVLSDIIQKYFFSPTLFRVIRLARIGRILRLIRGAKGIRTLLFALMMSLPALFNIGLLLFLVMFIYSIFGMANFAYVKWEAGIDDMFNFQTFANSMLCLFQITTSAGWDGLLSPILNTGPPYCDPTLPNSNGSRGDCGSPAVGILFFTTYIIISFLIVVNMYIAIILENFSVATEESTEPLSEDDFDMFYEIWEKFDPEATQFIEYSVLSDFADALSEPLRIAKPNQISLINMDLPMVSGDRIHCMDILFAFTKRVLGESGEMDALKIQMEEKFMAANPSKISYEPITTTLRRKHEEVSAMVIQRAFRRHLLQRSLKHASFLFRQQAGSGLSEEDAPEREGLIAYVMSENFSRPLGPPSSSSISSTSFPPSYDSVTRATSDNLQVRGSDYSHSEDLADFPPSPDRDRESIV
# Procedure, shortened: as §1
# α3β4 = target: T12, α3β4 (Homo sapiens, UniProt P30926+P32297); assay: Ion channel panel (IonWorks Barracuda): α3β4; type: cell-based; details: 100% = no change, <100% = inhibition
# T12 construct: host or cells: HEK293 or CHO
# Procedure, shortened: as §1
# Nav1.7 = target: T13, Nav1.7 (Homo sapiens, UniProt Q15858); assay: cell-based; type: cell-based; details: 100% = no change; for Activity of Nav1.7 with peptide, expressed as a percentage of the reference compound: peptide at 0.2 μM; for Activity of Nav1.7 with peptide (percentage of the reference compound): peptide at 20 μM
# T13 construct: host or cells: HEK293 or CHO
# T13 sequence (Q15858 whole entry): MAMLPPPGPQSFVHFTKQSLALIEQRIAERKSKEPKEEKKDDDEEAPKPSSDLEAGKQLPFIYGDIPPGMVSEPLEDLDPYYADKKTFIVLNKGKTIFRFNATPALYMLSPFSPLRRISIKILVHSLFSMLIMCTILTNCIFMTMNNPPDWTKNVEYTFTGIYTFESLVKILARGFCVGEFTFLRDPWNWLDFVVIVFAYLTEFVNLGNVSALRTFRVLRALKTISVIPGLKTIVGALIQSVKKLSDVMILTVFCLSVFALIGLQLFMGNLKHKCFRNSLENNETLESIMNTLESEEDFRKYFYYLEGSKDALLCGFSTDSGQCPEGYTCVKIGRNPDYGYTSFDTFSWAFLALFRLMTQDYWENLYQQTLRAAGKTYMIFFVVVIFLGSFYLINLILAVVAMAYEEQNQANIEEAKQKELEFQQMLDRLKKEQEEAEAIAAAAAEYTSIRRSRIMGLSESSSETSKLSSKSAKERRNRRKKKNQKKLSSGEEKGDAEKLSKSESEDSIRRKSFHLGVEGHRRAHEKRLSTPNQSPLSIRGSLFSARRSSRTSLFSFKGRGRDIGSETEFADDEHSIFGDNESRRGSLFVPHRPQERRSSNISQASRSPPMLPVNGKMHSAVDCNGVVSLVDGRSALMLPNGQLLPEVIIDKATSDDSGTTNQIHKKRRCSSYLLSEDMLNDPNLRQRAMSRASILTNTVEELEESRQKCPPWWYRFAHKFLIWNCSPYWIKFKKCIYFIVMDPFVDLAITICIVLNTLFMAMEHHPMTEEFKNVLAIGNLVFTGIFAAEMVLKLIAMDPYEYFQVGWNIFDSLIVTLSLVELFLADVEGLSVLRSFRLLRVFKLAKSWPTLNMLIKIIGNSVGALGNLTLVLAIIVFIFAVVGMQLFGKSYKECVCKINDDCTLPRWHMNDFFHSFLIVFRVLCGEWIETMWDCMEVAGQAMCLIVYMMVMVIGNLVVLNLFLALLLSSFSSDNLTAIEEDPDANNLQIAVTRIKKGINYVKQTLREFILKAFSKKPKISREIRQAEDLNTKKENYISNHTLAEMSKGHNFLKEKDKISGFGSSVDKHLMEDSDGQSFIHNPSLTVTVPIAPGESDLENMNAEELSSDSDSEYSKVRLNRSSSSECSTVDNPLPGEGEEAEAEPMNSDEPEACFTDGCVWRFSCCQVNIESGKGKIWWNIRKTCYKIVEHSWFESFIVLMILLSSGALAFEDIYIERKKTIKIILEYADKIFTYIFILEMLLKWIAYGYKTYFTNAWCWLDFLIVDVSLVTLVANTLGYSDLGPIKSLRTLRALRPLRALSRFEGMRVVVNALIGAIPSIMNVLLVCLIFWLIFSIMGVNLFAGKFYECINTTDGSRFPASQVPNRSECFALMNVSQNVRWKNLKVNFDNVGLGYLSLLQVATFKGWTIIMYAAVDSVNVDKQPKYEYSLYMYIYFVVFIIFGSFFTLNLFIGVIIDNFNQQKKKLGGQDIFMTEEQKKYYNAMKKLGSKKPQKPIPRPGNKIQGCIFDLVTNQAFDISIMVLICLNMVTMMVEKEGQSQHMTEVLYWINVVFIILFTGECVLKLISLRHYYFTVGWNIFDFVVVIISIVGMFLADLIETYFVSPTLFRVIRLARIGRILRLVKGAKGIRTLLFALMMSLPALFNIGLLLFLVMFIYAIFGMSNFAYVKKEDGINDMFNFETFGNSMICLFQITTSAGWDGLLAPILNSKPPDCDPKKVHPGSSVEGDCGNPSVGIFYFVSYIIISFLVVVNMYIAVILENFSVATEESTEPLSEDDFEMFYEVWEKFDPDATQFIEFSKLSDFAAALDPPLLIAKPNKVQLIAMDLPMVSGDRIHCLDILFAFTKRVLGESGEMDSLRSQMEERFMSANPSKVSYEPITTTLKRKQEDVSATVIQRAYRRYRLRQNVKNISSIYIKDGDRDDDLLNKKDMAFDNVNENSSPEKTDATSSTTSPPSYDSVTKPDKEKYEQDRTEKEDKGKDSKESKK
# NR2B = target: T14, NR2B (Homo sapiens, UniProt Q13224); assay: Ion channel panel (IonWorks Barracuda): NR2B; type: cell-based; details: 100% = no change, <100% = inhibition
# T14 construct: host or cells: HEK293 or CHO
# Procedure, shortened: as §1
# GABA = assay: Ion channel panel (IonWorks Barracuda): GABA; type: cell-based; details: 100% = no change, <100% = inhibition
# Procedure, shortened: as §1
# α4β2 = target: T15, α4β2 (Homo sapiens, UniProt P17787+P43681); assay: Ion channel panel (IonWorks Barracuda): α4β2; type: cell-based; details: 100% = no change, <100% = inhibition
# T15 construct: host or cells: HEK293 or CHO
# Procedure, shortened: as §1
# [1] = first of two Nav1.5 columns (probably TP1)
# [2] = second of two Nav1.5 columns (probably TP2)
# [3] = first of two Nav1.7 columns (probably TP1)
# [4] = second of two Nav1.7 columns (probably TP2)
substance,measurement,setting,value
21 (GSAEIIRCSGTRECYAPCQKLTGCLNAKCMNKACKCYGCV) [compound 21],"Activity of Kir2.1 with peptide, expressed as a percentage of the reference compound",Kir2.1; peptide at 0.2 μM,105%
same,Activity of Kir2.1 with peptide (percentage of the reference compound),Kir2.1; peptide at 20 μM,101%
same,"Activity of TRPV1 with peptide, expressed as a percentage of the reference compound",TRPV1; peptide at 0.2 μM,106%
same,Activity of TRPV1 with peptide (percentage of the reference compound),TRPV1; peptide at 20 μM,86%
same,Activity of 5HT3a with peptide (percentage of the reference compound),5HT3a,91%
same,"Activity of 5HT3a with peptide, expressed as a percentage of the reference compound",5HT3a,87%
same,"Activity of TRPA1 with peptide, expressed as a percentage of the reference compound",TRPA1; peptide at 0.2 μM,119%
same,Activity of TRPA1 with peptide (percentage of the reference compound),TRPA1; peptide at 20 μM,95%
same,"Activity of Cav2.2 with peptide, expressed as a percentage of the reference compound",Cav2.2; peptide at 0.2 μM,98%
same,Activity of Cav2.2 with peptide (percentage of the reference compound),Cav2.2; peptide at 20 μM,105%
same,"Activity of Kv2.1 with peptide, expressed as a percentage of the reference compound",Kv2.1; peptide at 0.2 μM,110%
same,Activity of Kv2.1 with peptide (percentage of the reference compound),Kv2.1; peptide at 20 μM,108%
same,"Activity of Cav2.1 with peptide, expressed as a percentage of the reference compound",Cav2.1; peptide at 0.2 μM,103%
same,Activity of Cav2.1 with peptide (percentage of the reference compound),Cav2.1; peptide at 20 μM,106%
same,"Activity of Kv1.2 with peptide, expressed as a percentage of the reference compound",Kv1.2; peptide at 0.2 μM,52%
same,Activity of Kv1.2 with peptide (percentage of the reference compound),Kv1.2; peptide at 20 μM,36%
same,"Activity of Kv1.3 with peptide, expressed as a percentage of the reference compound",Kv1.3; peptide at 0.2 μM,65%
same,Activity of Kv1.3 with peptide (percentage of the reference compound),Kv1.3; peptide at 20 μM,5%
same,"Activity of Kv1.1 with peptide, expressed as a percentage of the reference compound",Kv1.1; peptide at 0.2 μM,106%
same,Activity of Kv1.1 with peptide (percentage of the reference compound),Kv1.1; peptide at 20 μM,98%
same,"Activity of NR2A with peptide, expressed as a percentage of the reference compound",NR2A; peptide at 0.2 μM,105%
same,Activity of NR2A with peptide (percentage of the reference compound),NR2A; peptide at 20 μM,103%
same,"Activity of hERG with peptide, expressed as a percentage of the reference compound",hERG; peptide at 0.2 μM,109%
same,Activity of hERG with peptide (percentage of the reference compound),hERG; peptide at 20 μM,72%
same,"Activity of Nav1.5 with peptide, expressed as a percentage of the reference compound",Nav1.5; [1],108%
same,"Activity of Nav1.5 with peptide, expressed as a percentage of the reference compound",Nav1.5; [2],105%
same,Activity of Nav1.5 with peptide (percentage of the reference compound),Nav1.5; [1],96%
same,Activity of Nav1.5 with peptide (percentage of the reference compound),Nav1.5; [2],91%
same,"Activity of a3b4 with peptide, expressed as a percentage of the reference compound",α3β4; peptide at 0.2 μM,102%
same,Activity of a3b4 with peptide (percentage of the reference compound),α3β4; peptide at 20 μM,93%
same,"Activity of Nav1.7 with peptide, expressed as a percentage of the reference compound",Nav1.7; [3],112%
same,"Activity of Nav1.7 with peptide, expressed as a percentage of the reference compound",Nav1.7; [4],120%
same,Activity of Nav1.7 with peptide (percentage of the reference compound),Nav1.7; [3],105%
same,Activity of Nav1.7 with peptide (percentage of the reference compound),Nav1.7; [4],123%
same,"Activity of NR2B with peptide, expressed as a percentage of the reference compound",NR2B; peptide at 0.2 μM,113%
same,Activity of NR2B with peptide (percentage of the reference compound),NR2B; peptide at 20 μM,105%
same,"Activity of GABA with peptide, expressed as a percentage of the reference compound",GABA; peptide at 0.2 μM,111%
same,Activity of GABA with peptide (percentage of the reference compound),GABA; peptide at 20 μM,123%
same,"Activity of a4b2 with peptide, expressed as a percentage of the reference compound",α4β2; peptide at 0.2 μM,102%
same,Activity of a4b2 with peptide (percentage of the reference compound),α4β2; peptide at 20 μM,85%
